Measured values as given in US6448071.
Values belong to the substance of their own block, whether it stands above or below them.

Columns and labels:
[1] = biological target: pMCMV loaded H-2 L^d (murine) (UniProt P01897)
[2] = biological target: p2Ca loaded H-2 L^d (murine) (UniProt P01897); assay: flow cytometry, direct saturation of FITC-30.5.7 Fab on peptide-loaded RMA-S L^d cells
[3] = biological target: QL9 loaded H-2 L^d (murine) (UniProt P01897); assay: as above
[4] = biological target: SL9 loaded H-2 L^d (murine) (UniProt P01897); assay: as above
Chain of SL9 loaded H-2 L^d (murine) (P01897 25-309): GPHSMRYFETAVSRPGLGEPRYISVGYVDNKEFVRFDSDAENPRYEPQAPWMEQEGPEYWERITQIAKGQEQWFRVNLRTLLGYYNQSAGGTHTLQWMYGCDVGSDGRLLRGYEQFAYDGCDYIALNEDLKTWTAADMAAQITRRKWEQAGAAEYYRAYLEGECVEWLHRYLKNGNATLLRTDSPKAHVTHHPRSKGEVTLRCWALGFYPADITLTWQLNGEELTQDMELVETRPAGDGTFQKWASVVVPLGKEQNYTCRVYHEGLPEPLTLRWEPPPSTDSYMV

[5] = biological target: H-2 L^d naturally loaded with endogenous peptides on cells (RENCA; MC57G L^d) (murine) (UniProt P01897); assay: direct flow cytometry on RENCA cells
[6] = biological target: unloaded H-2 L^d on RMA-S L^d cells (murine) (UniProt P01897); assay: direct flow cytometry on RMA-S L^d cells without added peptide
Chain of unloaded H-2 L^d on RMA-S L^d cells (murine) (P01897 25-309): as above

[7] = biological target: unloaded H-2 L^d on RMA-S L^d cells (murine) (UniProt P01897); assay: direct flow cytometry on RMA-S L^d cells
[8] = biological target: SIY loaded H-2 K^bm3 on T2 K^bm3 cells (mouse); assay: direct flow cytometry on peptide-loaded T2 K^bm3 cells
[9] = biological target: p2Ca loaded H-2 L^d (murine) (UniProt P01897); assay: flow cytometry competition with constant FITC-30.5.7 Fab on peptide-loaded RMA-S L^d cells
[10] = biological target: tum^- loaded H-2 L^d (murine) (UniProt P01897); assay: direct flow cytometry on peptide-loaded RMA-S L^d cells
Chain of tum^- loaded H-2 L^d (murine) (P01897 25-309): as above

[11] = biological target: SL9 loaded H-2 L^d (murine) (UniProt P01897); assay: as above
[12] = biological target: SIY loaded H-2 K^b on T2 K^b cells (mouse) (UniProt P01901); assay: direct flow cytometry on peptide-loaded T2 K^b cells
Chain of SIY loaded H-2 K^b on T2 K^b cells (mouse) (P01901 22-369): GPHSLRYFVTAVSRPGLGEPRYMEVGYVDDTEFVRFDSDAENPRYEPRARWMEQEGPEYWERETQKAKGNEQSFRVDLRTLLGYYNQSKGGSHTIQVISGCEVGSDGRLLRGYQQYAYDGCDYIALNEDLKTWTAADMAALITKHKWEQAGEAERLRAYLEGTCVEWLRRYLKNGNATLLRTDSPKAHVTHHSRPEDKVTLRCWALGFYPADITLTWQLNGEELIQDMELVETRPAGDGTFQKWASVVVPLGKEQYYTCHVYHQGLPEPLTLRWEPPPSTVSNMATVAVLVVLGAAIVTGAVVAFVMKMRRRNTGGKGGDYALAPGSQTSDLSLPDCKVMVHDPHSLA

[13] = biological target: pVSV loaded H-2 K^b on T2 K^b cells (mouse) (UniProt P01901); assay: as above
Chain of pVSV loaded H-2 K^b on T2 K^b cells (mouse) (P01901 22-369): as above

Chain of soluble divalent 2C TcR/Ig (A2KF29 whole entry, looked up, tested part not stated): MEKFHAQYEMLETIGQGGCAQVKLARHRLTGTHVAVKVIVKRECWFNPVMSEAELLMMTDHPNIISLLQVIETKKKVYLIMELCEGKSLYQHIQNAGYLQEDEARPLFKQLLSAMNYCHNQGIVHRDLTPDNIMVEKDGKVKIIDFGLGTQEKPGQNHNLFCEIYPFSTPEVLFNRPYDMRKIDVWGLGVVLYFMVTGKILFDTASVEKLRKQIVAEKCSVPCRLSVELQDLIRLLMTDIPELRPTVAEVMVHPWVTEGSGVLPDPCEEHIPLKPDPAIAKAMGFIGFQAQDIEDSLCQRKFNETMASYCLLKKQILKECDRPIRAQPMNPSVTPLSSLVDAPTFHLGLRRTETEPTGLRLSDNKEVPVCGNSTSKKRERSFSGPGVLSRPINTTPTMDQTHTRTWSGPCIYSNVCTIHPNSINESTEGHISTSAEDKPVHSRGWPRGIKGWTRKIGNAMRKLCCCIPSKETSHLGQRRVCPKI
Chain of p2Ca loaded H-2 L^d (murine) (P01897 25-309): as the sequence (P01897 25-309) above
Chain of QL9 loaded H-2 L^d (murine) (P01897 25-309): as above
Chain of pMCMV loaded H-2 L^d (murine) (P01897 25-309): as above

Substance: FITC labeled 30.5.7 Fab
Kd [1]: 4.8 nM | Kd [2]: 5.8 nM | Kd [3]: 12.2 nM | Kd [4]: 4.8 to 6.4 nM

fold increase of reactivity on γ-IFN treated cells (5-50 units/ml) over untreated cells [5]: 5 to 6 fold | fold increase of mean channel fluorescence, cells at 27° C. against cells at 37° C. [6]: 5 fold
Substance: mAb 30.5.7 (antibody)

Substance: soluble divalent 2C TcR/Ig (from UniProt A2KF29)
MCF [7]: 10 MCF | MCF [8]: 36 MCF | Kapp [9]: 108 nM | MCF [10]: 10 MCF | MCF [11]: 100 MCF | MCF [12]: 276 MCF | MCF [13]: 14 MCF
